The results in this text go back to paper doi:10.1101/441683.

The target of this test is TssM (enteroaggregative Escherichia coli (EAEC)). Description: cryo-EM structure.

In the case of TssJ (natural protein), the stoichiometry N (TssJ per TssM) worked out at 1.5.
